# Assay results from patent publication US20220315967A1, “METHODS FOR PRODUCING D-TRYPTOPHAN AND SUBSTITUTED D-TRYPTOPHANS” (priority 2019, published 2022).
# T1: L-tryptophanyl-S-IvoA-ΔC(E^0)
# T1 chain: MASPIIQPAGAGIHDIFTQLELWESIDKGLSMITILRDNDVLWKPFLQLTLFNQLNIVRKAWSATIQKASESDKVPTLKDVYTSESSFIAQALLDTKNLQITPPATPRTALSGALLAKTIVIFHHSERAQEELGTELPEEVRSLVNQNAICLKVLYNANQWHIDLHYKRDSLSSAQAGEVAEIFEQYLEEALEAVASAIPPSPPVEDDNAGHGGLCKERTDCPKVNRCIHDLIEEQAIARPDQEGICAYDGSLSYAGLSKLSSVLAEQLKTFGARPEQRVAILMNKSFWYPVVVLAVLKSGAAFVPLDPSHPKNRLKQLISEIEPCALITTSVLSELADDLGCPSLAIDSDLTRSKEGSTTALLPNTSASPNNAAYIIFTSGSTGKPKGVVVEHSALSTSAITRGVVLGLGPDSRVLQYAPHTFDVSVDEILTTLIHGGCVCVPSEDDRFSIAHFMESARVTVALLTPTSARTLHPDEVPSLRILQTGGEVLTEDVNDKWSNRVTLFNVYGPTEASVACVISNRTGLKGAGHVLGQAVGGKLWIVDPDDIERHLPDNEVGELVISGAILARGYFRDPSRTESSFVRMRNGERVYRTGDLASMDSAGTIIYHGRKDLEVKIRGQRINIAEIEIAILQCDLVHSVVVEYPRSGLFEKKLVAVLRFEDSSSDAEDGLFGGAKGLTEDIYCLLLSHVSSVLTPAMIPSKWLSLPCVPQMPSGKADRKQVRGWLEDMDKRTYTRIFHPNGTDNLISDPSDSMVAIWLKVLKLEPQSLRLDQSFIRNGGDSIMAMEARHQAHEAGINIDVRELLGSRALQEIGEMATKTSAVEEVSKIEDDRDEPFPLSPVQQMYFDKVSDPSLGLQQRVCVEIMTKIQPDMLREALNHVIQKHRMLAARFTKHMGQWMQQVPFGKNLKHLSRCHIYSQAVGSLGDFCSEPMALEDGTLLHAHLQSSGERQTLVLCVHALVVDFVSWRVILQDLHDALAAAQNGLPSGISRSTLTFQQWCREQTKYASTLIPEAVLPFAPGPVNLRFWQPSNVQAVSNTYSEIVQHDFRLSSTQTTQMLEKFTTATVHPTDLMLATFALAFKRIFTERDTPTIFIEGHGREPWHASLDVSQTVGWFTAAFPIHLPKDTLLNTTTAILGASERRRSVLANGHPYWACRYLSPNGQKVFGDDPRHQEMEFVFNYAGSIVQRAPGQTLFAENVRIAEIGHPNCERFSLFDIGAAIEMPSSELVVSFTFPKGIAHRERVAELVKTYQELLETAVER
# T2: IvoA(C^0) mutant (H1428A)
# T2 chain: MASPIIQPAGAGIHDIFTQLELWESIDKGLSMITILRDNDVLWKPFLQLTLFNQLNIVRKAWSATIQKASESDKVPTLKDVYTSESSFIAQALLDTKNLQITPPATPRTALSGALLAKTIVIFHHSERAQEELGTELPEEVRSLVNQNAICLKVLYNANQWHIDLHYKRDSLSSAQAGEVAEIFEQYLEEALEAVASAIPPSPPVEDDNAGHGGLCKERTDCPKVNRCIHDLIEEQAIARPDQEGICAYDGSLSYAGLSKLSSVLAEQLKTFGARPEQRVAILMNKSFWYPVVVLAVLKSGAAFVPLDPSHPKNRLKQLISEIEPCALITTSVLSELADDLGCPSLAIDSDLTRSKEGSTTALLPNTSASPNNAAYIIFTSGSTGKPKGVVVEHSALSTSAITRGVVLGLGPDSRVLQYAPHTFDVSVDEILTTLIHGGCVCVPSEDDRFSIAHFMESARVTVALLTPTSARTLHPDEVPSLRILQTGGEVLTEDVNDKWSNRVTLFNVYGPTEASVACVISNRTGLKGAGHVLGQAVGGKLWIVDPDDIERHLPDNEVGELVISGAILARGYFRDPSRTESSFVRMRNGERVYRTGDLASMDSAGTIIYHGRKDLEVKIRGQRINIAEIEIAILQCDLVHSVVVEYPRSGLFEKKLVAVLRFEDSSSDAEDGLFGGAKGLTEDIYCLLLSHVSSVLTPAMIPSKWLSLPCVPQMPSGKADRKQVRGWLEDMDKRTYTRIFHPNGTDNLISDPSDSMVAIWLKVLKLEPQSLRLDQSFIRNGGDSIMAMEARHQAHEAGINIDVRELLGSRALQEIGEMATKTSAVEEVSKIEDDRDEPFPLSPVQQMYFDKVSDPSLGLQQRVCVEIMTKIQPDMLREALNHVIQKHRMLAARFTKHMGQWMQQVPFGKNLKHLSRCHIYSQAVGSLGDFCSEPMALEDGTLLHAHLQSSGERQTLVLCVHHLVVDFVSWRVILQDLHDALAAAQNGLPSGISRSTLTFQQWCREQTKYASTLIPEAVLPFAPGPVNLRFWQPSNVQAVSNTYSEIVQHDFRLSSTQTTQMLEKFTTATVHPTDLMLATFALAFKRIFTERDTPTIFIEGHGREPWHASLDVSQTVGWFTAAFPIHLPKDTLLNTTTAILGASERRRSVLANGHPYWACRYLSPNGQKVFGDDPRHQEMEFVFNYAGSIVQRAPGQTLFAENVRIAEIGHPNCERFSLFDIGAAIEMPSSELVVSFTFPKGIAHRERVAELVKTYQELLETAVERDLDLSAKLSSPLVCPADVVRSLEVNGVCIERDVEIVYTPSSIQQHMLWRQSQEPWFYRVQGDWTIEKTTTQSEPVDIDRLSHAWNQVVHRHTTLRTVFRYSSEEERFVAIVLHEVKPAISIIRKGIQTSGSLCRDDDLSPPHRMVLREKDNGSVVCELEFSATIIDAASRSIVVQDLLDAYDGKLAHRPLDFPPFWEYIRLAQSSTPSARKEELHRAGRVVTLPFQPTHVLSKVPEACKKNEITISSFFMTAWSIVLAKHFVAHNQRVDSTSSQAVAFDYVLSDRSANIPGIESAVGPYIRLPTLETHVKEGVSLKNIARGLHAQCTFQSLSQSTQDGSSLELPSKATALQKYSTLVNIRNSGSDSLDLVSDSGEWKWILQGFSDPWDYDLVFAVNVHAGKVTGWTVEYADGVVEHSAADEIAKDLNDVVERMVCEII
# B1: standalone IvoA-C (condensation (C) domain of Aspergillus nidulans single-module NRPS IvoA) (protein)
# chain: DLDLSAKLSSPLVCPADVVRSLEVNGVCIERDVEIVYTPSSIQQHMLWRQSQEPWFYRVQGDWTIEKTTTQSEPVDIDRLSHAWNQVVHRHTTLRTVFRYSSEEERFVAIVLHEVKPAISIIRKGIQTSGSLCRDDDLSPPHRMVLREKDNGSVVCELEFSHTIIDAASRSIVVQDLLDAYDGKLAHRPLDFPPFWEYIRLAQSSTPSARKEELHRAGRVVTLPFQPTHVLSKVPEACKKNEITISSFFMTAWSIVLAKHFVAHNQRVDSTSSQAVAFDYVLSDRSANIPGIESAVGPYIRLPTLETHVKEGVSLKNIARGLHAQCTFQSLSQSTQDGSSLELPSKATALQKYSTLVNIRNSGSDSLDLVSDSGEWKWILQGFSDPWDYDLVFAVNVHAGKVTGWTVEYADGVVEHSAADEIAKDLNDVVERMVCEII
# Key:
# [1] = molecular target: T1, L-tryptophanyl-S-IvoA-ΔC(E^0)
# [2] = molecular target: T2, IvoA(C^0) mutant (H1428A)
protein,measurement,setting,value
B1,IvoA-C catalyzed hydrolysis of the protein-bound thioester; liberated free tryptophan quantified by LC-MS,[1],IvoA-C stereoselectively hydrolyzed D-tryptophanyl-S-IvoA-ΔC(E^0) over L-tryptophanyl-S-IvoA-ΔC(E^0)
same,stereoinversion activity (complementation in trans),[2],Addition of IvoA-C in equimolar to either IvoA(C^0) mutant or IvoA-ΔC truncation mutant successfully rescued the impaired stereoinversion activity
